The subject of assay [1] is TMR-α-casein. In words: On-chip protease assay by fluorescence polarization of TMR-α-casein substrate, lab-on-a-chip with optical chopper. The following applies: 1 μM TMR-α-casein final in channel; reaction time 5.1 seconds; FIGS. 10A-10D. The class given is biochemical. The method, then:
Next, the protease assays were carried out using an apparatus for measuring fluorescence polarization including the optical chopper of FIG. 2 on a lab-on-a-chip of glass composed of a channel 1 C1, in which substrates or enzymes flowed, and a channel 2 C2, in which the reaction occurred, the channels having a depth of 12 μm and a width of 79 μm as depicted in FIG. 8.
For on-chip protease assays, the substrates and the enzymes should mix completely prior to the enzyme reactions. […] […] Therefore, the reaction time was confirmed to be 5.1 seconds after mixing of the substrate with the enzymes.
Subsequently, to carry out the protease assays in the lab-on-a-chip,2 μM of TMR-α-casein (the final concentration in the channel was 1 μM) was placed in a substrate reservoir and the respective proteases were placed in an enzyme reservoir at increasing concentrations in the same manner as the comparative example. Then, the two substances were allowed to flow into a channel 2 C2, a main channel, to cause a reaction. Fluorescence polarization FP was then measured at the detection point, positioned 32 mm away from the junction, from which the substrates and the enzymes flowed in.
Again, it was noted that fluorescence polarization values plateaued when the concentration of the enzymes reached at the point generating a specific rate or more.
For orientation: Fluorescence polarisation rises when a labelled molecule tumbles more slowly, as on binding a larger partner.

Assay [2] deals with TMR-α-casein. Description: Protease assay by fluorescence polarization of TMR-α-casein substrate, commercial fluorescence spectrometer. The class given is biochemical. The conditions noted are these: time course, varying enzyme concentrations (unit/mL); FIGS. 9A-9D. The method, then: Changes of fluorescence polarization FP were measured using the method and apparatus for measuring fluorescence polarization of the present invention, employing TMR-α-casein as a substrate, composed of TMR as a fluorescent probe and α-casein, a universal protein substrate reacted with various proteases.
First, TMR-α-casein, a fluorescently labeled substrate for proteases, was prepared by applying one of the well-known methods [Analytical Biochemistry (,1996) 243, 1-7] as follows.
10 mg/mL of α-casein (sigma) and 5 mg/mL of 5-carboxytetramethylrhodamine succinimidyl ester were mixed in 0.1 M sodium bicarbonate buffer solution (pH 9.0) for reaction at room temperature for two and a half hours. The resulting TMR-α-casein was purified by passing the reaction mixture over a HiTrap desalting column (Sephadex G-25 Amersham Bioscience), and used after quantitation of the amounts of protein and fluorescence.
Proteinase K, trypsin, papain and elastase were used as proteases to react at increasing concentrations. First, as a comparative example, the process that the TMR-α-casein substrate was degraded by the proteases was analyzed using a commercial fluorescence spectrometer (Perkin Elmer). […]

B1: papain: protease reacted with TMR-α-casein substrate (protein, UniProt P00784 134-345, looked up)
Papain: IPEYVDWRQKGAVTPVKNQGSCGSCWAFSAVVTIEGIIKIRTGNLNEYSEQELLDCDRRSYGCNGGYPWSALQLVAQYGIHYRNTYPYEGVQRYCRSREKGPYAAKTDGVRQVQPYNEGALLYSIANQPVSVVLEAAGKDFQLYRGGIFVGPCGNKVDHAVAAVGYGPNYILIKNSWGTGWGENGYIRIKRGTGNSYGVCGLYTSSFYPVKN
With B1, in the assay on TMR-α-casein [1], the “change of fluorescence polarization values of TMR-α-casein with enzyme concentration” value is recorded as “decreased with increasing concentrations”. Moreover, the “change of fluorescence polarization values of TMR-α-casein as the reaction proceeded” value in the assay with TMR-α-casein [2] is reported as “decreased”.

B2: proteinase K: protease reacted with TMR-α-casein substrate (protein, UniProt P06873 106-384, looked up)
Proteinase K: AAQTNAPWGLARISSTSPGTSTYYYDESAGQGSCVYVIDTGIEASHPEFEGRAQMVKTYYYSSRDGNGHGTHCAGTVGSRTYGVAKKTQLFGVKVLDDNGSGQYSTIIAGMDFVASDKNNRNCPKGVVASLSLGGGYSSSVNSAAARLQSSGVMVAVAAGNNNADARNYSPASEPSVCTVGASDRYDRRSSFSNYGSVLDIFGPGTSILSTWIGGSTRSISGTSMATPHVAGLAAYLMTLGKTTAASACRYIADTANKGDLSNIPFGTVNLLAYNNYQA
Consider B2, for which, in the assay on TMR-α-casein [1], the “change of fluorescence polarization values of TMR-α-casein with enzyme concentration” value was “decreased with increasing concentrations”. Moreover, the “change of fluorescence polarization values of TMR-α-casein as the reaction proceeded” value with TMR-α-casein [2] was “decreased”.
